Test results from the supplement of paper PMC9170038.

Tested on: K4 kissing-loop RNA reporter
Test: apparent KD of K4 kissing-loop reporter; higher = weaker reporter binding
Conditions: Eterna round: R107
Experimental: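 RNA-MaP round R107: designed RNA switches with theophylline, tryptophan, arginine or FMN aptamers are transcribed on-chip within common flanks. They are titrated with a labelled K4 kissing-loop RNA reporter in RNA-MaP buffer (100 mM Tris pH 7.5, 80 mM KCl, 4 mM MgCl2), without ligand or with the indicated ligand. Median apparent KD per design.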

[1] = input ligand: theophylline 20 uM
[2] = input ligand: tryptophan 2.4 mM
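Note: bound reporter read as fluorescence of individual clusters on recovered sequencing chips by microscopy, with normalized cluster intensities fitted with a binding model.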

Sequence | apparent KD of K4 kissing-loop reporter (input ligand: FMN 200 uM) [nM] | apparent KD of K4 kissing-loop reporter (input ligand: arginine 13.2 mM) [nM] | apparent KD of K4 kissing-loop reporter (input ligand: none) [nM] | apparent KD of K4 kissing-loop reporter [1] [nM] | apparent KD of K4 kissing-loop reporter [2] [nM]
GGUAUCUAUACAGAUACCAGUCGUAUAGGUCGAUUACAGGUUAGUGAUGUUAACCUGUACGACCCUUGGCAGCUGUAUAAUAAUA [Theo B Ex t2] | 62 | 60.3 | 59.9 | 51.7 | 61.9
AAGUGUGUGGCGGCCGCCACUAGAAUCCAGUGAUGUUGGAGAUAUCAGGUAACUGAUAUCCAACAUAGGACCGGGCCAUAUAGAA [Same State - Tryptophan B (Freestyle 11)] | 152 | 104 | 144 | 108 | 91.9
ACGUGCACCAGUGAUGUUGGAAAAUAUGAAGGAGCGGGCGAAAGCCCAGGUAGGUCGCAUAAUAGCACGAGCCACGAAAGUGGCA [#SwitchBubble 20 #K4Early] | 125 | 137 | 184 | 132 | 126
UGACAUUGCUCAGAUACCAGACUUGAGGAUCACCCAGGUGCCAAAUACGUACAAAUAAAAGUCCCUUGGCAGCUGAGCAAUGUCU [TheoBX 12] | 72.1 | 55.6 | 63.1 | 113 | 29.3
CAAUGAGUUUAAGAUGAUAUCAUCACAGAAGGAGCGAGUGAUAACUCAGGUAGGUCGCUGAAUUUGUCGAGUGAUGUUCGAUAGA [whbob_SS_Arginine_A_sa120] | 191 | 153 | 186 | 166 | 174
AACUUUUAAUGAAUUACAUUUUAUUUUUCUCGAGGACCGGUACGGCCGCCACUCGUACUAUAGUGAUGUUAUAGAUAAGUCCUAA [JR_ExcTryptoA_Sub020] | 124 | 182 | 142 | 179 | 68.7
UCCUAGGCUCGAAAGAGCCUAGGAUGGACUCAGGAUAUCCGGAAACGGAGAAGGGAGUCACUAGUGAUGUUAGGGACUCCCUAAA | 87.5 | 79 | 101 | 70.3 | 87.5
UUGACCUACUCAGGAUAUCCGCAGUGAUGUUGCGGUUGGCCUGAGCGACAUGAAAAUCUUACUACAGGAGAAGGGAGAGGGUUAC [Anraerce] | 106 | 79.8 | 134 | 88.5 | 96.9
GCACGAGUGAUGUUCGUUGGCAUGCAUUCCGAGGAUAUGGGAUUAGCCAGAAGGCGGAAUCGGUCUUCGAGUGAUGUUCGAAGAU [Same State FMN A GF 13] | 104 | 87.8 | 113 | 87.2 | 109
AAGCAUUCUUCGGAUUGCAGACCCGCUGAGGAGGAUAUGACGAAAGUCAGAAGGUUUCAGUGAUGUUGAGGCCUCCUCAAUGGUC [whbob_Ex_FMNA__2th183] | 280 | 259 | 250 | 255 | 263
GGCAUGGUGGCGCGGCUGCCAUGCGCUUGGGAGGAUAUGUUUCGUGACAGAAGGCCCAGUGAUGUUGGGUCUGUUCAAAAGGACU [Onrabe] | 447 | 149 | 133 | 137 | 113
CGCCAUAACACGGCCGCCACUCAUCAAGCUCAGUGAUGUUGAGCAGCAGCUGCAAUCGCGAUUACGAGGACCGGGUGCUGUCUGU [theeternabot_sameState_KL_Trp_B_50] | 286 | 329 | 314 | 357 | 231
UGACUGGACUGAAGGAGCGCUGAACUCCUAGUGAUGUUAGGAUAACGAGACAAAGUCUCGAAGCAGGUAGGUCGCAGUCUAGUCU | 118 | 95.3 | 112 | 123 | 108
UGACGUUUGGGAAGGAGCGGAAUGUAAUACGGAAUGCGUGGAGAUGCAGUGAUGUUGCAGAUCCAGGUAGGUCGCCCAAGGGACG [Soanina] | 99.5 | 84.9 | 91.2 | 79.3 | 87.8
AGUGAUGUUUUUUUUAAGAGUGAUGUUUUUCGAGGACCGGUACGGCCGCCACUCGAGUGAGGAGUGCGGUGGUGAGAUGUUGAGU [oomullin] | 549 | 466 | 677 | 589 | 519
CUUGGUCUACGAAGGAGCGCCGUGCAGUGAUGUUGCAGUCAGAUCGAGUGAUGUUUCGGGCGGCAGGUAGGUCGCGUGGCCCUCU [Excusion Arginine B GF 27] | 574 | 437 | 725 | 692 | 591
GGGAGUAGUGCGGCCGCCACUGUGAAAGAAGAAGAAUAUAGUGAUGUUAUAUAGGAAAUAAAGAAUAGGACCGGGCAUUAGAUUU [SSTRyptB.L] | 282 | 190 | 221 | 186 | 161
ACGAAGGAUGGAAGGAGCGCUCGUCAGUCCUGCGAGUGAUGUUCGUGGGUAAAUAGUCGCGAGCAGGUAGGUCGCCAUCUUGAGC [Isarteza] | 133 | 104 | 119 | 112 | 108
AAGGUAUCUAGAUACAUUACUGAACUAGAUACCAGCAUCGAAAGAUGCCCUUGGCAGCUAGCAGUGAUGUUGCUAGCAAUAAGAA [Design3] | 121 | 109 | 113 | 112 | 119
UGACUGGACUGAAGGAGCGAGCGAGACAAAGUCUCGAAUUUUCAGUGAUGUUGAUAUAUAACUCAGGUAGGUCGCAGUCUAGUCU [ArgBS 8 #SwitchBubble #StaticStem] | 395 | 423 | 543 | 438 | 441
GCAGCAAAUAAACGAGUGAUGUUCGACGAUACCAGCCUCGAUAGAGGCCCUUGGCAGCGUAAAUGAUCACAAAGCCAAGGGCUGC [#SwitchBubble 1] | 332 | 375 | 396 | 366 | 362
AAAUUUAAUAUAUUUAAAUAAAUAUGUGAUACCAGACAUUUAUAAGUCCCUUGGCAGCACAUUGCAGUGAUGUUGCUUAUAAUAA [JR_SSTheophyA_Sub016] | 72.7 | 80.9 | 89.7 | 145 | 76.5

Sequence | apparent KD of K4 kissing-loop reporter (input ligand: FMN 200 uM) [nM] | apparent KD of K4 kissing-loop reporter (input ligand: arginine 13.2 mM) [nM] | apparent KD of K4 kissing-loop reporter (input ligand: none) [nM] | apparent KD of K4 kissing-loop reporter [1] [nM] | apparent KD of K4 kissing-loop reporter [2] [nM]
GCGCGUCAUGUCAGCGGUGACUAUGUCGAUACCAGCGCCGCAAGGCGCCCUUGGCAGCGACGCGCUGGAGUGAUGUUCCAGCGUG [#2 Exclusion - Theophylline A Attempt #10 (HarryS)] | 148 | 118 | 140 | 144 | 124
GGUAUCUAUACAGAUACCAGUCGUACAGCACCAUUACAGGUUAGUGAUGUUAACCUGUACGACCCUUGGCAGCUGUAUAAUAAUA [Theo B Ex t2a] | 105 | 85.4 | 96.8 | 121 | 87.9
UGAUAGGACAGAAGGAGCGGGAGUGAUGUUCCCAAAAGAAUAAGGUGUCAAAAGACACCCUUCCAGGUAGGUCGCUGUCCUAUCU | 82.2 | 131 | 106 | 119 | 87.4
GGAUAGGACAGAGGAUAUGGUAGUGAUGUUACCAAACUGGUUACUCUUGUCAGAAAACUGGCAUCUCUAGAAGGCUGUCCUAUCG [KL-XFMN-B9] | 389 | 156 | 149 | 144 | 168
AUAGGCAUAGCCCGAGUGAUGUUCGACGAUACCAGCCUCGAUAGAGGCCCUUGGCAGCGUAAAUGAUCAUGAAGCCAAGGAAUAA [whbob_Ex_Theo_A_th69] | 342 | 313 | 442 | 353 | 313
GAUAAUUACGUAGGAUAUCCAUAUCCGCGGUCUUGAUGGAUUUUUACGAUCCAGUGAUGUUGGAUUGGAGAAGGACGGAGGCAAA [Arquedis] | 289 | 392 | 403 | 435 | 362
GGCGGGUGCCCGUAAGGGUGCCCGGCCGAUACCAGCGCGACGGCGCGCCCUUGGCAGCGGCGCCGAGUGAUGUUCGGCCUGCCGU [#2 Same State - Theophylline A Attempt #24 (HarryS)] | 92.7 | 105 | 90.6 | 84.5 | 151
GAACGGCUGGCGGCCGCCACUGGUAUACGAGUGAUGUUCGGAUACACAUAGAAUAAGGUGAUUGACAGGACCGGGUCAGAGCCGG [#15 K4 Tryptophan B Same State] | 251 | 197 | 234 | 246 | 180
UGUCAUUGGUCUGAUACCAGCUUGAUCGGUAAACGAUCUACUGGAGUGAUGUUCCUAAAUAGCCCUUGGCAGCAGACCGAUGACU [TheoBS 4 #SwitchBubble #StaticStem] | 197 | 157 | 180 | 123 | 173
AAGCAGUCACUCGAAACCAUCGAAGAUGGACGAGGACCGGUACGGCCGCCACUCGGAGUGAUGUUCCGAAGACUGCAAAAUAAAA | 373 | 374 | 374 | 434 | 370
CCUGCAGCUGUAACCGAGUGAUGAUACGGACGAGGACCGGUACGGCCGCCACUCGCCAGUGAUGUUGGUGUGGGAGGACGUAACU [KL-XTryp-A23] | 241 | 177 | 237 | 256 | 221
UCGCGUCUGCGAGGAUAUCGGAUUAGAGUGAUGUUCUAUAAACGCCCAGUGAUGUUGGAUGCGAUACGAGAAGGCGCUGGGCGCA [Same State FMN B GF8] | 178 | 280 | 203 | 321 | 167
UUUUAAUGCAGUGAUGUUGCAAAUAAAACAGAGGAUAUGCAUGGAAGCAGAAGGCUGAUAUGUCGUACUUCGACAUAUUAUAUUU [JR_SSFMNA_Sub012] | 89.2 | 125 | 91.4 | 121 | 81
AAUCCUUACGGAGUGAUGUUCCGUAGCGAUACCAGCCAUUGCGAUGGCCCUUGGCAGCGCUAUAAGCAUUGCUAUUAAGGGCCAA [Theo A Ex t7a] | 134 | 107 | 124 | 121 | 126
GCCGUACGCAUGGAUACCAGUCUUUCACGACUGGACAUGGAGUGAUGUUUCGUGAUGCUAGACCCUUGGCAGCCAUGCGUACGGC | 255 | 198 | 242 | 329 | 210
GUAGCACUUGAUAGUGAUGUUAGCAAGGGCAAGGAUAUCAUCUCAAUGAGAAGGUGUCCUUGCUAACAGCUACGGGAAUAUCCCA [Omei KL FMN A Exc D v5] | 173 | 424 | 577 | 579 | 630
GCCGUACGCAUGGAUACCAGAUGGCACUAUAAUCUCCCAGAGUGAUGUUCUGGCCUGCCUAUCCCUUGGCAGCCAUGCGUACGGC | 686 | 514 | 670 | 387 | 585
UGUCAUGGAAACAUGAACGUUGAUGUUCGACGAGGACCGGUACGGCCGCCACUCGAGUAAUAGUCAGUGAUGUUGACUUGUUUAA [KL-SSTryp-A form1 sub4] | 49.4 | 101 | 69.1 | 90.9 | 55.6
CCUAUCUCAUACGAUACCAGUCGUCGAGUGAUGUUCGAUUAAAUAAAUUUGCCAAAUAACGACCCUUGGCAGCGUAUGGGAUAGG [Ex Theophylline B K4 16] | 273 | 295 | 318 | 334 | 326
GGUCGAGUGAUGUUCGAUGUAAUGCAUUCAGAGGAUAUAGGAUUGGCUAGAAGGCUGAAUCGUUCUUCGAGUGAUGUUCGAGGAU [Same State FMN A GF 7] | 286 | 141 | 213 | 244 | 183
AUCACAGUGAUGUUGUGAUAUGAUUCAGAUACCAGACUAGUGCUAGUCCCUUGGCAGCUGAACUCAGCAGCACCACUAGCACUCU [Theo A Ex t6] | 157 | 132 | 148 | 166 | 149
CGAGUCGGUUCAGAUACCAGCCAAUUAAAGUCGAGUGAUGUUCGACAAUGAACGUCCAAAGGCCCUUGGCAGCUGAAUUGGGAAC [Same State Theophylline B GF 19] | 216 | 107 | 191 | 250 | 122
